B1: Sur46Y9 (peptide)
peptide: CPTENEPDY
notes: Analogue of survivin46-54 with the C-terminal L replaced by Y
B2: Sur51Y9 (peptide)
peptide: EPDLAQCFY
notes: Analogue of survivin51-59 with the C-terminal F replaced by Y
B3: Sur1M2 (peptide)
peptide: LMLGEFLKL
notes: Analogue of survivin96-104 (Sur1) with T at position 2 replaced by M; also called modified survivin96-104
B4: Sur1L2 (peptide)
peptide: LLLGEFLKL
notes: Analogue of survivin96-104 (Sur1) with T at position 2 replaced by L
B5: Sur113L2 (peptide)
peptide: ILKETNNKKK
notes: Sur113-122 with A at position 2 replaced by L
B6: Sur5K9 (peptide)
peptide: TLPPAWQPK
notes: Sur5-13 with the C-terminal F replaced by K
B7: Sur13K9 (peptide)
peptide: FLKDHRISTK
notes: Sur13-22 with the C-terminal F replaced by K
B8: Sur54L2 (peptide)
peptide: LLQCFFCFK
notes: Sur54-62 with A at position 2 replaced by L
B9: Sur53K9 (peptide)
peptide: DLAQCFFCK
notes: Sur53-61 with the C-terminal F replaced by K

The binders below were run against HLA-B35 (human) (assay: assembly assay: HLA-B35 stabilisation; against sur46-54).

Row | Binder | fold higher affinity relative to the native peptide
1 | B1 | 5 to 10 fold

Each binder was assayed against HLA-B35 (human) (assay: assembly assay: HLA-B35 stabilisation; against sur51-59).

Row | Binder | fold higher affinity relative to the native peptide
2 | B2 | 5 to 10 fold

Each binder was assayed against T1, HLA-A2 (HLA-A*0201) (human) (assay: assembly assay: HLA-A2 stabilisation, T2 cells, IP, IEF gel).
T1 construct: MHC class I molecule to which the peptide is added in the assembly assay (T2 cells); folded molecules are immunoprecipitated with conformation-dependent antibody

Row | Binder | C50 | binding result
3 | TLPPAWQPFL [Sur8 (Survivin5-14)] | 30 µM | 
4 | FLKLDRERA [Sur6 (Survivin101-109)] | 30 µM | 
5 | ETAKKVRRAI [Sur10 (Survivin126-135)] |  | no binding
6 | LTLGEFLKL (also called Sur96-104) [Sur1 (Survivin96-104)] | > 100 µM | 
7 | B3 | 1 µM | 
8 | B4 | 1 µM | 
9 | RAIEQLAAM [Sur2 (Survivin133-141)] |  | no binding
10 | SVKKQFEEL [Sur5 (Survivin88-96)] |  | no binding
11 | KVRRAIEQL [Sur3 (Survivin130-138)] | > 100 µM | 
12 | ELTLGEFLKL (also called Sur95-104) [Sur9 (Survivin95-104)] | 10 µM | 
13 | TAKKVRRAI [Sur7 (Survivin127-135)] |  | no binding

Each binder was assayed against HLA-B35 (human) (assay: assembly assay: HLA-B35 stabilisation, T2-B35 lysate, W6/32 IP, IEF gel).

Row | Binder | C50
14 | B2 | 1.5 µM
15 | EPDLAQCFF [Sur51-59 (Survivin51-59)] | 13 µM
16 | CPTENEPDL [Sur46-54 (Survivin46-54)] | 20 µM
17 | TPERMAEAGF (also called sur34-46 (as printed once)) [Sur34-43 (Survivin34-43)] | > 100 µM
18 | LPPAWQPFL [Sur6-14 (Survivin6-14)] | > 100 µM
19 | B1 | 4 µM

What follows are binders tested against T1, HLA-A2 (HLA-A*0201) (assay: assembly assay: HLA stabilisation, TAP-deficient cell lysate, W6/32 IP, IEF gel).

Row | Binder | binding result
20 | SVKKQFEELTL [Sur88-98] | no binding (tested: 100, 10, 1, 0.1, 0.01 µM)
21 | KLDRERAKNKI [Sur103-113] | no binding (tested: 100, 10, 1, 0.1, 0.01 µM)
22 | PTLPPAWQPFL [Sur4-14] | no binding (tested: 100, 10, 1, 0.1, 0.01 µM)
23 | LAQCFFCFKEL [Sur54-64] | no binding (tested: 100, 10, 1, 0.1, 0.01 µM)

Each binder was assayed against HLA-A1 (HLA-A*0101) (human) in the same assay as above.

Row | Binder | binding result | C50
24 | EPDLAQCFF [Sur51-59 (Survivin51-59)] | no binding (tested: 40, 4, 0.4, 0.04 µM) | 
25 | MAEAGFIHY (Sur38-46 with C changed to Y at P9) [Sur38Y9] |  | 0.8 µM
26 | MAEAGFIHC (also called Survivin38-46) [Sur38-46] | no binding (tested: 40, 4, 0.4, 0.04 µM) | 
27 | TPERMAEAGF (also called sur34-46 (as printed once)) [Sur34-43 (Survivin34-43)] | no binding (tested: 40, 4, 0.4, 0.04 µM) | 
28 | TPERMAEAGY (Sur34-43 with Y at the C-terminus) [sur34Y9] | no binding (tested: 40, 4, 0.4, 0.04 µM) | 
29 | PTENEPDLAY (Sur47-56 with Q changed to Y at P10) [Sur47Y10] |  | 0.4 µM
30 | PTENEPDLAQ (also called Survivin47-56) [Sur47-56] | no binding (tested: 40, 4, 0.4, 0.04 µM) | 
31 | FEELTLGEF (also called Survivin93-101) [Sur93-101] |  | > 100 µM
32 | FTELTLGEF (Sur93-101 with T at position 2) [Sur93T2] |  | 1 µM
33 | FSELTLGEF (Sur93-101 with S at position 2) [Sur93S2] |  | 30 µM
34 | FEELTLGEY (Sur93-101 with Y at the C-terminus) [sur93Y9] | no binding (tested: 40, 4, 0.4, 0.04 µM) | 
35 | LKDHRISTF [Sur14-22] | no binding (tested: 40, 4, 0.4, 0.04 µM) | 
36 | LKDHRISTY (Sur14-22 with Y at the C-terminus) [sur14Y9] | no binding (tested: 40, 4, 0.4, 0.04 µM) | 
37 | ENEPDLAQCF [Sur49-58] | no binding (tested: 40, 4, 0.4, 0.04 µM) | 
38 | ENEPDLAQCY (Sur49-58 with Y at the C-terminus) [sur49Y9] | no binding (tested: 40, 4, 0.4, 0.04 µM) | 
39 | QFEELTLGEF (also called Survivin92-101) [Sur92-101] |  | 2 µM
40 | QFEELTLGEY (Sur92-101 with Y at the C-terminus) [sur92Y9] | no binding (tested: 40, 4, 0.4, 0.04 µM) | 
41 | QSEELTLGEF (Sur92-101 with S at position 2) [Sur92S2] |  | 100 µM
42 | QTEELTLGEF (Sur92-101 with T at position 2) [Sur92T2] |  | 2 µM

Each binder was assayed against HLA-A3 (HLA-A*0301) (human) in the same assay as above.

Row | Binder | binding result | C50
43 | PTIRRKNLRK [SurEx3-A3-2] | no binding (tested: 100, 10, 1, 0.1, 0.01 µM) | 
44 | FLKLDRERAK [Sur 101-110] | no binding (tested: 100, 10, 1, 0.1, 0.01 µM) | 
45 | TIRRKNLRK [SurEx3-A3-1] |  | 0.5 µM
46 | B5 |  | > 100 µM
47 | IAKETNNKKK [Sur 113-122] | no binding (tested: 100, 10, 1, 0.1, 0.01 µM) | 
48 | DLAQCFFCFK (also called Survivin53-62) [Sur 53-62] |  | 100 µM
49 | KIAKETNNKK [Sur 112-121] |  | 1 µM
50 | CAFLSVKKQF [Sur 84-93] | no binding (tested: 100, 10, 1, 0.1, 0.01 µM) | 
51 | B6 |  | 2 µM
52 | B7 | no binding (tested: 100, 10, 1, 0.1, 0.01 µM) | 
53 | B8 |  | 1 µM
54 | KIAKETNNK [Sur 112-120] |  | 2 µM
55 | ELTLGEFLK [Sur 95-103] |  | > 100 µM
56 | KLDRERAKNK [Sur 103-112] | no binding (tested: 100, 10, 1, 0.1, 0.01 µM) | 
57 | DLAQCFFCF [Sur 53-61] | no binding (tested: 100, 10, 1, 0.1, 0.01 µM) | 
58 | B9 | no binding (tested: 100, 10, 1, 0.1, 0.01 µM) | 
59 | RISTFKNWPK (Sur18-27 with F changed to K at P10) [Sur18K10] |  | 0.02 µM
60 | RISTFKNWPF (also called Survivin18-27) [Sur 18-27] | no binding (tested: 100, 10, 1, 0.1, 0.01 µM) | 
61 | RITREEHKK [Sur2b-A3-1] | no binding (tested: 100, 10, 1, 0.1, 0.01 µM) | 

Each binder was assayed against HLA-A11 (HLA-A*1101) (human) in the same assay as above.

Row | Binder | binding result | C50
62 | FLKLDRERAK [Sur 101-110] | no binding (tested: 40, 4, 0.4, 0.04 µM) | 
63 | IAKETNNKKK [Sur 113-122] | no binding (tested: 40, 4, 0.4, 0.04 µM) | 
64 | DLAQCFFCFK (also called Survivin53-62) [Sur 53-62] |  | 5 µM
65 | KIAKETNNKK [Sur 112-121] |  | > 100 µM
66 | CAFLSVKKQF [Sur 84-93] | no binding (tested: 40, 4, 0.4, 0.04 µM) | 
67 | KIAKETNNK [Sur 112-120] |  | 1 µM
68 | ELTLGEFLK [Sur 95-103] | no binding (tested: 40, 4, 0.4, 0.04 µM) | 
69 | KLDRERAKNK [Sur 103-112] | no binding (tested: 40, 4, 0.4, 0.04 µM) | 
70 | DLAQCFFCF [Sur 53-61] | no binding (tested: 40, 4, 0.4, 0.04 µM) | 
71 | RISTFKNWPF (also called Survivin18-27) [Sur 18-27] | no binding (tested: 40, 4, 0.4, 0.04 µM) | 

From patent USRE48522 (SURVAC, dated 2021)
